Molecular target: KSR1 in KSR1+/+ mouse embryo fibroblasts (cells that overexpress KSR1) (UniProt Q61097)
Test: proximity ligation; fixed serum-starved KSR1+/+ MEFs, anti-KSR1 with anti-pERK or anti-ERK antibodies, Duolink; vehicle or 40 μM CGS9343B for 16 h, then vehicle or 100 ng/ml EGF for 5 min; spots per cell, vehicle set to 1

Sequence of KSR1 in KSR1+/+ mouse embryo fibroblasts (cells that overexpress KSR1) (Q61097 whole entry): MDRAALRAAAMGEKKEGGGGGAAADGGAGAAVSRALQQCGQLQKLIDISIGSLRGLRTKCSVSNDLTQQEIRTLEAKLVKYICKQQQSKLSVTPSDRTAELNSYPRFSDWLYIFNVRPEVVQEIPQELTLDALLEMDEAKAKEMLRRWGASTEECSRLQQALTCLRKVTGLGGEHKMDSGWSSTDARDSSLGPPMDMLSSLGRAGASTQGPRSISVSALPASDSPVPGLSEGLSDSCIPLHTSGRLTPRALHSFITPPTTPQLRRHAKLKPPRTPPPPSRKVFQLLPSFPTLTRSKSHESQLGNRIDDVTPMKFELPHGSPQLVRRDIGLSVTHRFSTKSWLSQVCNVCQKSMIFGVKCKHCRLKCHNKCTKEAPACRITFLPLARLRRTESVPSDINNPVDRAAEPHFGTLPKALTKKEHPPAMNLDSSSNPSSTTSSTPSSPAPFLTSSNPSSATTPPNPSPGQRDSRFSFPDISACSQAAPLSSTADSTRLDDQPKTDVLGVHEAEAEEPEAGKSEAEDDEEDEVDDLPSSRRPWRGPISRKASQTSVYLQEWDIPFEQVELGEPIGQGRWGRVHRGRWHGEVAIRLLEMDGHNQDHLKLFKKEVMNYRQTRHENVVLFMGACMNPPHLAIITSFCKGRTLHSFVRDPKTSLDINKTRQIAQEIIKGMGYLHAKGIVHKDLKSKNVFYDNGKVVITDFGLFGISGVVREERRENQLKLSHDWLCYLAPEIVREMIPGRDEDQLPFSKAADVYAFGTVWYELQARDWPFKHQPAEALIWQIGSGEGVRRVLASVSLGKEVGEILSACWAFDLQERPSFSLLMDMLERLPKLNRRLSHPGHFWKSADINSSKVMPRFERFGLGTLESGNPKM

## ERK (extracellular signal-regulated kinase), total ERK (from UniProt P63085 1-358) (natural protein)
  fold change of PLA spots per cell, EGF against vehicle: 4.36 fold

## pERK (phosphorylated ERK) (from UniProt P63085 1-358) (natural protein)
  fold change of PLA spots per cell, EGF against vehicle: 6.2 fold
